Test results published in PMC3229523, “Identification of Lactoferricin B Intracellular Targets Using an Escherichia coli Proteome Chip” (PLoS ONE, 2011).
Ends that are not written are not given here. * marks the point of attachment. Biotin = O=C1N[C@H]2[C@H](CS[C@H]2CCCCC(=O)*)N1

Experiments:
Experiment in all cases: peptide or protein array; E. coli proteome chip: purified His-tagged proteins printed in duplicate on Fullmoon slides, blocked with 1% BSA; 10 nM N-terminal biotinylated LfcinB with 1% BSA, room temperature, 1 h; detected with DyLight 649-labeled streptavidin, ratio to DyLight 549-labeled anti-His antibody; ProCAT normalisation, local cut-off; triplicate chips
Conditions in all cases: both partners purified
GlyQ = target: T1, GlyQ (E. coli K-12, UniProt P00960 1-303)
T1 construct: GlyQ, E. coli K-12
T1 sequence (looked up): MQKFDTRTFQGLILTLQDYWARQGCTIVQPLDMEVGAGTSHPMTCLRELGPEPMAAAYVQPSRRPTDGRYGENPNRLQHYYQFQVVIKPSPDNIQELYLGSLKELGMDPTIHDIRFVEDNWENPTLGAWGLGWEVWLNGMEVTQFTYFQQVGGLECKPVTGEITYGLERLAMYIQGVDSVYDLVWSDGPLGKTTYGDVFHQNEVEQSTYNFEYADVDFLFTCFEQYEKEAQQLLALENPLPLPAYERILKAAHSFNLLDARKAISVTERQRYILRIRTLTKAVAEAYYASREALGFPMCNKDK

YhiF = target: T2, YhiF (E. coli K-12, UniProt P37195 1-176)
T2 construct: YhiF, E. coli K-12
T2 sequence (looked up): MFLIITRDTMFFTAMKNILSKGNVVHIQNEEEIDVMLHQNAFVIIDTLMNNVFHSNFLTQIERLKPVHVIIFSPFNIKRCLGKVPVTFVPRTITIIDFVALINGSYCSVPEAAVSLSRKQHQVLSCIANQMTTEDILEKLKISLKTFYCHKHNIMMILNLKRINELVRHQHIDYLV

XerB = target: T3, XerB (E. coli K-12, UniProt P68767 1-503)
T3 construct: XerB, E. coli K-12
T3 sequence (looked up): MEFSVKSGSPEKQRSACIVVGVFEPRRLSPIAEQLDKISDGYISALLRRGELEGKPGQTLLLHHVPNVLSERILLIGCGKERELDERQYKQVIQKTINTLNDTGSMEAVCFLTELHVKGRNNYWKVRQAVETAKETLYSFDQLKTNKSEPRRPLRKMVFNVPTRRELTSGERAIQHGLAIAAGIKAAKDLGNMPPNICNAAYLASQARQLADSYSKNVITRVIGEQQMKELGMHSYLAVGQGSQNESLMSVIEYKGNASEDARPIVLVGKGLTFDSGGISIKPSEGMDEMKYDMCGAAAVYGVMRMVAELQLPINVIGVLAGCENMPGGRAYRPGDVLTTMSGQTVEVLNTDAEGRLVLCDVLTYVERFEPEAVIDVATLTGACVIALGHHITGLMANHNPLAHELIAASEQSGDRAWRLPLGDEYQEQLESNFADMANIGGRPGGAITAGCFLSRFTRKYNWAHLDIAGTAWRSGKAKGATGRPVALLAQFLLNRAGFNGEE

SrmB = target: T4, SrmB (E. coli K-12, UniProt P21507 1-444)
T4 construct: SrmB, E. coli K-12
T4 sequence (looked up): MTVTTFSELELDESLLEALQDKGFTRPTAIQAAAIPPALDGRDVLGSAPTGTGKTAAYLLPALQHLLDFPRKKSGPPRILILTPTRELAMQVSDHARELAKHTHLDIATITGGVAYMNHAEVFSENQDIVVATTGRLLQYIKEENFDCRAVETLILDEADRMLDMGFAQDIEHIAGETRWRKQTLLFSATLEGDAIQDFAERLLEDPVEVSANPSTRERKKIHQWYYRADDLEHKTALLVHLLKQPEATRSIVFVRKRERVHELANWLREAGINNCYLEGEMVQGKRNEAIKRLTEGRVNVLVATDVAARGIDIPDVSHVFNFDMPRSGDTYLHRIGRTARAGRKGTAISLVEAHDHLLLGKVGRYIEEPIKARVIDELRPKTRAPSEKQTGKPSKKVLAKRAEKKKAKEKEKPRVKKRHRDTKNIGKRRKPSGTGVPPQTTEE

YegJ = target: T5, YegJ (E. coli K-12, UniProt P76394 1-153)
T5 construct: YegJ, E. coli K-12
T5 sequence (looked up): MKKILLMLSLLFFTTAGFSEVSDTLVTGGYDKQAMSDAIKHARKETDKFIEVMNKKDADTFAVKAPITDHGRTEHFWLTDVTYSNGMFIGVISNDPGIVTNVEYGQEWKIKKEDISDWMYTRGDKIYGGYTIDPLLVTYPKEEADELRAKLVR

YciT = target: T6, YciT (E. coli K-12, UniProt P76034 1-249)
T6 construct: YciT, E. coli K-12
T6 sequence (looked up): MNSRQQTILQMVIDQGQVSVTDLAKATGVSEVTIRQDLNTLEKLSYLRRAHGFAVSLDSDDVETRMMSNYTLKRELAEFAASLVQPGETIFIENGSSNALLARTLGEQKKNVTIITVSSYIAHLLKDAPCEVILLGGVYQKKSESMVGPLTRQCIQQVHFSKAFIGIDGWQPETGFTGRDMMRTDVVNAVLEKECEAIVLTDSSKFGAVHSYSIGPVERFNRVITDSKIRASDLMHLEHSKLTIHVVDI

Measured: binding result

B1: N-terminal biotinylated Lactoferricin B (peptide, UniProt P24627 36-60, looked up)
peptide: Biotin-FKCRRWQWRMKKLGAPSITCVRRAF
modifications: ends and bridges not checked
notes: lactoferricin B (LfcinB), cationic antimicrobial peptide of 25 amino acids; also called biotinylated LfcinB; biotin-labeled LfcinB; source: bought: Kelowna Inc
binds: GlyQ | YhiF | XerB | SrmB | YegJ | YciT
